Assay results published in US20200239597A1, “AN ANTI-APOPTOTIC FUNCTION OF PKM2 AND INTRACELLULARLY EXPRESSED SCFV ANTIBODIES” (La Jolla Institute for Allergy and Immunology, priority 2017, published 2020).

Tested on: mouse embryonic fibroblasts (MEFs)
Assay: BimS-induced death in MEFs (WT, PKM2-deficient, reconstituted), surviving cells counted
Type: cell-based
Description: Wild type (WT) mouse embryonic fibroblasts (MEFs), PKM2-deficient MEFs, or PKM2-deficient MEFs reconstituted with WT or mutant PKIM2 cDNA, were infected or not with IB5, then later transfected with BimS expression plasmid. Surviving cells were counted 48 h afterwards.
Cell viability was measured with a Countess™ Automated Cell Counter (Invitrogen) using trypan blue. For the clonogenic survival assay, 293T or MEFs cells were seeded in 6-well plates at 1×10^5 cells/well in a 2-ml volume, transfected with BimS cDNA and incubated for 24 h. Afterwards, the medium was replaced and the cells cultured for 3-4 days. Thereafter, the plates were rinsed with PBS and fixed and stained with a solution containing crystal violet (0.5% w/v) and glutaraldehyde (6% v/v) as described (Franken et al., 2006).

B1: IB5: intracellularly expressed single-chain antibody (scFv) specific for PKM2, SEQ ID NO: 2; also made as monovalent recombinant scFv in E. coli (protein)
scFv: MAQVQLVETGPGLVKPSETLSLRCTVSGGSFDNYYWNWIRQPPGKGLEYIGYVFPSTGATNYNPSLGSRVTISLDTSKNQFSLTLTSVTTADTAIYYCVRSGHDLWTGSTWFDPWGQWTTVTVSSGGGGSGGGGSGGGGSEIVLTQSPGTLSLSPGERATLSCRASQSVSSSYLAWYQQKPGQAPRLLIYGASSRATGIPDRFSGSGSGTDFTLTISRLEPEDIAVYYCQQRSNWPRTFGQGTKVEIKRGLGGLASVDYKDDDDK
modifications: artificial intrabody clone 5
notes: also made as monovalent recombinant scFv in E. coli
In the case of B1, the “rescue from BimS-induced killing” value (PKM2-deficient MEFs) is reported as “entirely abrogated”, the “cell rescue after reconstitution” value (PKM2-null MEFs reconstituted with PKM2 (K270M)) is reported as “failed to support IB5-induced cell rescue” and the “cytoprotective ability after reconstitution” value (PKM2-null MEFs reconstituted with WT PKM2 cDNA) is reported as “restored the cytoprotective ability of IB5”. The “rescue from BimS-induced killing” value (WT MEFs) was “rescued a percentage of the WT cells” and the “numbers of viable cells” value (early-passage MEFs reconstituted with PKM2 (K422R)) was “further increased viability”.
